One assay relates to NARC1. The assay can be described thus: Autoprocessing of NARC1 transiently expressed in COS-7 cells, Western blotting. Format: cell-based, rat. The following applies: C-terminal myc/His fusion transiently expressed in COS-7 cells, 60 kD processing product on Western blot. The procedure: The wild-type NARC1-myc/His clone was transiently expressed in COS-7 cells. The cells were then harvested, lysed, and the protein extracted. Polyacrylamide gel electrophoresis was then carried out on the protein extracts, followed by Western blotting. The resulting membranes were probed using both anti-myc- and NARC1-specific antibodies. Routine techniques and protocols were followed. See, e.g., Ausubel et al.(1998), supra.
This cleavage event maps to approximately the junction between the pro-domain and the enzymatic domain.
Autoprocessing of NARC1 was investigated as follows. COS-7 cells were co-transfected with the following EGFP and myc plasmids: (A) wild-type NARC1-myc and wild-type NARC1-EGFP; (B) S385A NARC1-myc and S385A NARC1-EGFP; and (C) wild-type NARC1-myc and S385A NARC1-myc. The cells were then harvested, lysed, and the protein extracted. Polyacrylamide gel electrophoresis was then carried out on the protein extracts, followed by Western blotting. The resulting membranes were sequentially probed using first the anti-myc and then the anti-EGFP monoclonal antibodies (Abs). Thus, the experiment allowed sequential detection of the separate NARC1 products encoded from the two co-transfected plasmids.
As indicated above, a series of C-terminal truncation mutants were generated. The truncation NARC1-myc/His clones were transiently expressed in COS-7 cells. The cells were then harvested, lysed, the protein extracted, and polyacrylamide gel electrophoresis carried out on the protein extracts. Western analysis was then carried out using both anti-myc and NARC1-specific antibodies.
(In general: A western blot detects proteins with antibodies after separation by electrophoresis.)

Assay [1] concerns cerebellar granule neurons (CGNs). Kind of assay: Apoptosis after transient expression of NARC1-EGFP constructs in CGNs, Laser-Scanning Cytometry. The class given is cell-based, rat. The following applies: for Resulting Cell Death Activity: EGFP construct transiently expressed in CGNs, percentage of GFP-positive cells undergoing apoptosis. The text has this: Cerebellar granule neurons (CGNs) were transfected with a NARC1-enhanced green fluorescent protein (EGFP) expression construct (with the EGFP sequences located at the carboxy terminus of the fusion protein). Unless otherwise indicated, the construct utilized in the following experiments contained 2073 base pairs of the rat NARC1 transcript set forth in FIG. 5. Specifically, this corresponds to nucleotides 205-2277 and amino acid residues 56-746 of SEQ ID NO:4 and SEQ ID NO:3, respectively. The polypeptide sequence encoded by the NARC1 insert utilized herein has been set forth as SEQ ID NO:9 herein. The nucleotide sequence of this insert has been set forth as SEQ ID NO:10.
To investigate NARC1-mediated neuronal cell death, transient expression of the EGFP clones was carried out in cerebellar granule neurons (CGNs). These studies are set forth in detail as follows.

The text below walks through data of patent US20030119038A1, “NARC1, novel subtilase-like homologs” (priority 1999, published 2003).

“Also recorded” adds a separate entry of the source.

B1: H225W: Full-length NARC1 point mutant; mutation of the active site histidine (protein)
chain: MGIRCSTWLRWPLSPQLLLLLLLCPTGSRAQDEDGDYEELMLALPSQEDSLVDEASHVATATFRRCSKEAWRLPGTYVVVLMEETQRLQVEQTAHRLQTWAARRGYVIKVLHVFYDLFPGFLVKMSSDLLGLALKLPHVEYIEEDSLVFAQSIPWNLERIIPAWQQTEEDSSPDGSSQVEVYLLDTSIQSGHREIEGRVTITDFNSVPEEDGTRFHRQASKCDSWGTHLAGVVSGRDAGVAKGTSLHSLRVLNCQGKGTVSGTLIGLEFIRKSQLIQPSGPLVVLLPLAGGYSRILNTACQRLARTGVVLVAAAGNFRDDACLYSPASAPEVITVGATNAQDQPVTLGTLGTNFGRCVDLFAPGKDIIGASSDCSTCYMSQSGTSQAAAHVAGIVAMMLNRDPALTLAELRQRLILFSTKDVINMAWFPEDQRVLTPNRVATLPPSTQETGGQLLCRTVWSAHSGPTRTATATARCAPEEELLSCSSFSRSGRRRGDRIEAIGGQQVCKALNAFGGEGVYAVARCCLLPRVNCSIHNTPAARAGPQTPVHCHQKDHVLTGCSFHWEVENLRAQQQPLLRSRHQPGQCVGHQEASVHASCCHAPGLECKIKEHGIAGPAEQVTVACEAGWTLTGCNVLPGASLPLGAYSVDNVCVARIRDAGRADRTSEEATVAAAICCRSRPSAKASWVHQ
modifications: mutant of rat sequence mutating amino acid His225Trp of SEQ ID NO9
With B1, the “Autoprocessing Activity” value with NARC1 is on record as “reduces autoprocessing; also recorded: Reduced processing”. Also, in assay [1], the “Resulting Cell Death Activity” value was “essentially a wild-type phenotype; also recorded: no effect on the cell death phenotype”.

B2: C-terminal truncation V507: NARC1 terminating at residue V507; much of the CRR removed (protein)
chain: MGIRCSTWLRWPLSPQLLLLLLLCPTGSRAQDEDGDYEELMLALPSQEDSLVDEASHVATATFRRCSKEAWRLPGTYVVVLMEETQRLQVEQTAHRLQTWAARRGYVIKVLHVFYDLFPGFLVKMSSDLLGLALKLPHVEYIEEDSLVFAQSIPWNLERIIPAWQQTEEDSSPDGSSQVEVYLLDTSIQSGHREIEGRVTITDFNSVPEEDGTRFHRQASKCDSHGTHLAGVVSGRDAGVAKGTSLHSLRVLNCQGKGTVSGTLIGLEFIRKSQLIQPSGPLVVLLPLAGGYSRILNTACQRLARTGVVLVAAAGNFRDDACLYSPASAPEVITVGATNAQDQPVTLGTLGTNFGRCVDLFAPGKDIIGASSDCSTCYMSQSGTSQAAAHVAGIVAMMLNRDPALTLAELRQRLILFSTKDVINMAWFPEDQRVLTPNRVATLPPSTQETGGQLLCRTVWSAHSGPTRTATATARCAPEEELLSCSSFSRSGRRRGDRIEAIGGQQV
modifications: mutant of rat sequence truncated mutant ends at amino acid Val507
notes: NARC1 terminating at residue V507; much of the CRR removed
With B2, the “Autoprocessing Activity” value in the assay on NARC1 was “Marked increase in”; in the assay with NARC1 (listed as V507 C-terminal truncation mutant), “markedly increased level of autoprocessing”; with NARC1 (listed as V507 truncation), “increased rate of processing”. In addition, the “BAF sensitivity of induced cell death” value in assay [1] (CGNs, 100 μM BAF) was “insensitive”. The “Resulting Cell Death Activity” value in assay [1] is reported as “Induces wild type”.
